Results published in article PMC7706699.

Molecular target: hFip1 (residues 137–243) S159C/C189S/C216S mutant, FAM-labeled (human) (UniProt Q6UN15)
Assay: fluorescence polarisation

Row | Kd [nM] | Substance
1 | 22 | human CPSF30 (residues 62–244) Y127A mutant (from UniProt O95639-2 62-244) (domain or fragment)
2 | 5.4 | human CPSF30 (residues 62–244) Y151A mutant (from UniProt O95639-2 62-244) (domain or fragment)
3 | 11.4 | human CPSF30 ZF2–C terminus (residues 62–244), wild type (from UniProt O95639-2 62-244) (domain or fragment)
